In the data set the test system is Cc1cn([C@H]2C[C@H](O)[C@@H](COP(=O)(O)OP(=O)(O)O[C@H]3O[C@H](C)[C@H](O)[C@H](N)[C@H]3O)O2)c(=O)[nH]c1=O. In words: purified protein. The following applies: 5 mM N10-formyl-THF, 50 mM HEPPS pH 8.0, 0.20 uM enzyme.

Turning to FdtF (Salmonella enterica), the Km (commonly the concentration of substrate that gives half-maximal velocity) was found to be 100 ± 10 µM; the kcat (commonly the maximal rate divided by the concentration of active sites) was 15.5 ± 0.8 s⁻¹; the catalytic efficiency (kcat/Km) – broadly, the second-order rate constant that governs catalysis at low substrate concentration – was determined as 160000 ± 18000 M⁻¹ s⁻¹.

(Values after article PMC5581740.)
